We go through two molecules from paper PMC7806223, “Structures of Rhodopseudomonas palustris RC-LH1 complexes with open or closed quinone channels” (Science Advances, 2021).

Common to all, as to test: cryo-EM structure; RC-LH1_(14)-W complex purified from the PufW-His strain; in IMAC buffer (20 mM tris-HCl pH 8.0, 200 mM NaCl, 0.03% β-DDM); 2.65 Å
Details in all cases: both partners purified

Experiment [1] addresses T1, protein-W (PufW), C-terminally 10× His-tagged (Rhodopseudomonas palustris CGA009, UniProt Q6N1K3 1-102).
T1 construct: protein-W (PufW, RPA4402) of Rhodopseudomonas palustris, a 10.5-kDa protein with three transmembrane helices; C-terminal amino acids are unresolved in the map; also called PufW-His; RPA4402; source: Rps. palustris CGA009 PufW-His strain, expressed from the native pufW locus; purified within RC-LH1_(14)-W (Ni-NTA IMAC, DEAE, SEC); not shown: 10× His, C-terminal, kept
T1 sequence: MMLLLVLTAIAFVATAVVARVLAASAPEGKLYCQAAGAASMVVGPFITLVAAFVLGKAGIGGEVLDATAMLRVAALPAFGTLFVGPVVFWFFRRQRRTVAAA

The target in experiment [2] is T2, RC-L (PufL) (Rhodopseudomonas palustris CGA009, UniProt O83005 1-277).
T2 construct: reaction center L subunit (PufL) of Rhodopseudomonas palustris; also called subunit L; L polypeptide; source: endogenous, Rps. palustris CGA009 (ΔpufW and PufW-His strains); purified within RC-LH1 complexes from β-DDM-solubilized membranes

The target in experiment [3] is T3, RC-M (PufM) (Rhodopseudomonas palustris CGA009, UniProt A0A4Z7 1-307).
T3 construct: reaction center M subunit (PufM) of Rhodopseudomonas palustris; also called subunit M; M polypeptide; source: endogenous, Rps. palustris CGA009 (ΔpufW and PufW-His strains); purified within RC-LH1 complexes from β-DDM-solubilized membranes

B1: LH1-β (PufB) (natural protein)
chain: not shown
notes: LH1-β (PufB) of Rhodopseudomonas palustris; mass spectrometry of wild-type RC-LH1: residues Ser2 to Ala53; resolved Gly4 to Tyr52 in RC-LH1_(16) and Ser5 to Tyr52 in RC-LH1_(14)-W, no density for 13 C-terminal residues; 14 copies in RC-LH1_(14)-W, 16 copies in RC-LH1_(16); The termini were found by mass spectrometry on mixed complexes of the wild-type strain; also called β-polypeptide; source: …
As to B1, the binding result in experiment [1] is “binds”.

B2: RC-H (PuhA) (natural protein, Rhodopseudomonas palustris CGA009, UniProt A0A4Z9 1-255, looked up)
chain: MQPGAYLDLAQVTLYVFWIFFAGLLFYLRREDKREGYPLVADAGSGTRLAKIGVPAPPDPKTYLLRGGATKTVPSTSNDRPNVALTPAAPWPGAPFVPTGNPFADGVGPGSYAQRADVPELGLDNLPIIVPLRAAKGMFLDPRDPNPVGMPVVGCDGVVGGTVTEVWVDRAEVLARYLEVEVAKSRKRVLLPVPFALINDPFGKVSVDAIRGDQFAGVPTTSKGDQVSKLEEDKICAYYGAGTLYATPLRSESLV
notes: reaction center H subunit (PuhA) of Rhodopseudomonas palustris; C-terminal amino acids are unresolved in the map; also called subunit H; source: endogenous, Rps. palustris CGA009 (ΔpufW and PufW-His strains); purified within RC-LH1 complexes from β-DDM-solubilized membranes
With B2, the binding result in experiment [2] and in experiment [3] was “binds” throughout.
